According to US20180030151A1 (MOGAM INSTITUTE FOR BIOMEDICAL RESEARCH, published 2018):
Like-named read-outs stand apart in the source and are kept apart here.

Legend:
Experiment in all cases: cell-based or functional assay
[1] = biological target: T1, recombinant human TFPI (tissue factor pathway inhibitor) (human, UniProt P10646 29-304)
[2] = biological target: T1, recombinant human TFPI (tissue factor …); remark: listed apart in the source
[3] = biological target: T1, recombinant human TFPI (tissue factor …); remark: listed apart in the source
[4] = biological target: T1, recombinant human TFPI (tissue factor …); remark: listed apart in the source
[5] = biological target: T1, recombinant human TFPI (tissue factor …); remark: listed apart in the source
[6] = biological target: T1, recombinant human TFPI (tissue factor …); remark: listed apart in the source
[7] = biological target: T1, recombinant human TFPI (tissue factor …); remark: listed apart in the source
[8] = biological target: T1, recombinant human TFPI (tissue factor …); remark: listed apart in the source
[9] = biological target: T1, recombinant human TFPI (tissue factor …); remark: listed apart in the source
[10] = biological target: T1, recombinant human TFPI (tissue factor …); remark: listed apart in the source
[11] = biological target: T1, recombinant human TFPI (tissue factor …); remark: listed apart in the source
[12] = biological target: T1, recombinant human TFPI (tissue factor …); remark: listed apart in the source
[13] = biological target: T1, recombinant human TFPI (tissue factor …); remark: listed apart in the source
[14] = biological target: T1, recombinant human TFPI (tissue factor …); remark: listed apart in the source
[15] = biological target: T1, recombinant human TFPI (tissue factor …); remark: listed apart in the source
[16] = biological target: T1, recombinant human TFPI (tissue factor …); remark: listed apart in the source

B1: clone T417 (antibody, V domains shown)
VH: EVHLVESGGDLVKPGGSLKLSCAASGFTFSSYAMSWVRQTPDKRLEWVATITTGGSYTYYPDSVKGRFTISRDNAKNTLYLQMSSLKSEDTAMYYCARQDGNFLMDYWGQGTTVTVSS
VL: not shown
notes: also called T417 chimeric antibody
TFPI inhibitory activity, FXa activity assay, Ab 10 nM [1]: 78.4% | effect of inhibiting TFPI, FXa activity assay, Ab 10 nM [1]: 72% | A405, TF/FVIIa/FX complex assay, Ab 1.56 nM [2]: 0.134 | A405, TF/FVIIa/FX complex assay, Ab 3.13 nM [2]: 0.147 | A405, TF/FVIIa/FX complex assay, Ab 6.25 nM [2]: 0.179 | A405, TF/FVIIa/FX complex assay, Ab 12.5 nM [2]: 0.242 | A405, TF/FVIIa/FX complex assay, Ab 25 nM [2]: 0.873 | A405, TF/FVIIa/FX complex assay, Ab 50 nM [2]: 0.945 | A405, TF/FVIIa/FX complex assay, Ab 100 nM [2]: 0.949 | % of Normalized, TF/FVIIa/FX complex assay, Ab 1.56 nM [3]: 14.5% | % of Normalized, TF/FVIIa/FX complex assay, Ab 3.13 nM [3]: 16% | % of Normalized, TF/FVIIa/FX complex assay, Ab 6.25 nM [3]: 19.4% | % of Normalized, TF/FVIIa/FX complex assay, Ab 12.5 nM [3]: 26.3% | % of Normalized, TF/FVIIa/FX complex assay, Ab 25 nM [3]: 95% | % of Normalized, TF/FVIIa/FX complex assay, Ab 50 nM [3]: 103% | % of Normalized, TF/FVIIa/FX complex assay, Ab 100 nM [3]: 103% | A405, TF/FVIIa/FX complex assay, Ab 1.56 nM [4]: 0.145 | A405, TF/FVIIa/FX complex assay, Ab 3.13 nM [4]: 0.16 | A405, TF/FVIIa/FX complex assay, Ab 6.25 nM [4]: 0.186 | A405, TF/FVIIa/FX complex assay, Ab 12.5 nM [4]: 0.251 | A405, TF/FVIIa/FX complex assay, Ab 25 nM [4]: 0.88 | A405, TF/FVIIa/FX complex assay, Ab 50 nM [4]: 0.908 | A405, TF/FVIIa/FX complex assay, Ab 100 nM [4]: 0.945 | % of Normalized, TF/FVIIa/FX complex assay, Ab 1.56 nM [5]: 17.5% | % of Normalized, TF/FVIIa/FX complex assay, Ab 3.13 nM [5]: 17.2% | % of Normalized, TF/FVIIa/FX complex assay, Ab 6.25 nM [5]: 20% | % of Normalized, TF/FVIIa/FX complex assay, Ab 12.5 nM [5]: 27.7% | % of Normalized, TF/FVIIa/FX complex assay, Ab 25 nM [5]: 97.7% | % of Normalized, TF/FVIIa/FX complex assay, Ab 50 nM [5]: 102% | % of Normalized, TF/FVIIa/FX complex assay, Ab 100 nM [5]: 102% | A405, TF/FVIIa/FX complex assay (FX 5 nM), Ab 1.56 nM [6]: 0.045 | A405, TF/FVIIa/FX complex assay (FX 5 nM), Ab 3.13 nM [6]: 0.049 | A405, TF/FVIIa/FX complex assay (FX 5 nM), Ab 6.25 nM [6]: 0.05 | A405, TF/FVIIa/FX complex assay (FX 5 nM), Ab 12.5 nM [6]: 0.072 | A405, TF/FVIIa/FX complex assay (FX 5 nM), Ab 25 nM [6]: 0.154 | A405, TF/FVIIa/FX complex assay (FX 5 nM), Ab 50 nM [6]: 0.509 | A405, TF/FVIIa/FX complex assay (FX 5 nM), Ab 100 nM [6]: 0.745 | % of Normalized, TF/FVIIa/FX complex assay (FX 5 nM), Ab 1.56 nM [7]: 5.5% | % of Normalized, TF/FVIIa/FX complex assay (FX 5 nM), Ab 3.13 nM [7]: 6% | % of Normalized, TF/FVIIa/FX complex assay (FX 5 nM), Ab 6.25 nM [7]: 6.2% | % of Normalized, TF/FVIIa/FX complex assay (FX 5 nM), Ab 12.5 nM [7]: 8.9% | % of Normalized, TF/FVIIa/FX complex assay (FX 5 nM), Ab 25 nM [7]: 19% | % of Normalized, TF/FVIIa/FX complex assay (FX 5 nM), Ab 50 nM [7]: 62.9% | % of Normalized, TF/FVIIa/FX complex assay (FX 5 nM), Ab 100 nM [7]: 92% | TF/FVIIa/FXa assay % of 0 nM TFPI, 12.5 nM Ab, 50 nM TFPI [8]: 21.2% | TF/FVIIa/FXa assay % of 0 nM TFPI, 50 nM Ab, 50 nM TFPI [8]: 115% | TF/FVIIa/FXa assay % of 0 nM TFPI, 100 nM Ab, 50 nM TFPI [8]: 113% | TF/FVIIa/FXa assay OD, 12.5 nM Ab, 50 nM TFPI [8]: 0.17 OD | TF/FVIIa/FXa assay OD, 25 nM Ab, 50 nM TFPI [8]: 0.696 OD | TF/FVIIa/FXa assay OD, 50 nM Ab, 50 nM TFPI [8]: 0.924 OD | TF/FVIIa/FXa assay OD, 100 nM Ab, 50 nM TFPI [8]: 0.907 OD | FXa assay % of FXa alone, 2.5 nM Ab, 10 nM TFPI [9]: 17.6% | FXa assay % of FXa alone, 5 nM Ab, 10 nM TFPI [9]: 75.9% | FXa assay % of FXa alone, 10 nM Ab, 10 nM TFPI [9]: 85.2% | FXa assay % of FXa alone, 20 nM Ab, 10 nM TFPI [9]: 93.3% | FXa assay OD, 2.5 nM Ab, 10 nM TFPI [9]: 0.127 | FXa assay OD, 5 nM Ab, 10 nM TFPI [9]: 0.546 | FXa assay OD, 10 nM Ab, 10 nM TFPI [9]: 0.613 | FXa assay OD, 20 nM Ab, 10 nM TFPI [9]: 0.67 | FXa assay % of FXa alone, 2.5 nM Ab, 10 nM TFPI [10]: 6.9% | FXa assay % of FXa alone, 5 nM Ab, 10 nM TFPI [10]: 18.8% | FXa assay % of FXa alone, 10 nM Ab, 10 nM TFPI [10]: 55.2% | FXa assay % of FXa alone, 20 nM Ab, 10 nM TFPI [10]: 78% | FXa assay OD, 2.5 nM Ab, 10 nM TFPI [10]: 0.0335 | FXa assay OD, 5 nM Ab, 10 nM TFPI [10]: 0.091 | FXa assay OD, 10 nM Ab, 10 nM TFPI [10]: 0.267 | FXa assay OD, 20 nM Ab, 10 nM TFPI [10]: 0.378 | FXa assay % of FXa alone, 2.5 nM Ab, 10 nM TFPI [11]: 9.8% | FXa assay % of FXa alone, 5 nM Ab, 10 nM TFPI [11]: 52.1% | FXa assay % of FXa alone, 10 nM Ab, 10 nM TFPI [11]: 69.4% | FXa assay % of FXa alone, 20 nM Ab, 10 nM TFPI [11]: 81.8% | FXa assay OD, 2.5 nM Ab, 10 nM TFPI [11]: 0.079 | FXa assay OD, 5 nM Ab, 10 nM TFPI [11]: 0.42 | FXa assay OD, 10 nM Ab, 10 nM TFPI [11]: 0.56 | FXa assay OD, 20 nM Ab, 10 nM TFPI [11]: 0.66 | FXa assay % of FXa alone, 2.5 nM Ab, 10 nM TFPI [12]: 7.7% | FXa assay % of FXa alone, 5 nM Ab, 10 nM TFPI [12]: 29.9% | FXa assay % of FXa alone, 10 nM Ab, 10 nM TFPI [12]: 56.8% | FXa assay % of FXa alone, 20 nM Ab, 10 nM TFPI [12]: 75.6% | FXa assay OD, 2.5 nM Ab, 10 nM TFPI [12]: 0.0625 | FXa assay OD, 5 nM Ab, 10 nM TFPI [12]: 0.242 | FXa assay OD, 10 nM Ab, 10 nM TFPI [12]: 0.461 | FXa assay OD, 20 nM Ab, 10 nM TFPI [12]: 0.614 | FXa assay % of FXa alone, 2.5 nM Ab, 10 nM TFPI [13]: 5.4% | FXa assay % of FXa alone, 5 nM Ab, 10 nM TFPI [13]: 8% | FXa assay % of FXa alone, 10 nM Ab, 10 nM TFPI [13]: 30.7% | FXa assay % of FXa alone, 20 nM Ab, 10 nM TFPI [13]: 58.5% | FXa assay OD, 2.5 nM Ab, 10 nM TFPI [13]: 0.041 | FXa assay OD, 5 nM Ab, 10 nM TFPI [13]: 0.061 | FXa assay OD, 10 nM Ab, 10 nM TFPI [13]: 0.234 | FXa assay OD, 20 nM Ab, 10 nM TFPI [13]: 0.446 | FXa assay % of FXa alone, 2.5 nM Ab, 10 nM TFPI [14]: 5.5% | FXa assay % of FXa alone, 5 nM Ab, 10 nM TFPI [14]: 7.1% | FXa assay % of FXa alone, 10 nM Ab, 10 nM TFPI [14]: 28.8% | FXa assay % of FXa alone, 20 nM Ab, 10 nM TFPI [14]: 54.5% | FXa assay OD, 2.5 nM Ab, 10 nM TFPI [14]: 0.048 | FXa assay OD, 5 nM Ab, 10 nM TFPI [14]: 0.062 | FXa assay OD, 10 nM Ab, 10 nM TFPI [14]: 0.251 | FXa assay OD, 20 nM Ab, 10 nM TFPI [14]: 0.474 | FXa assay % of FXa alone, 2.5 nM Ab, 10 nM TFPI [15]: 7.2% | FXa assay % of FXa alone, 5 nM Ab, 10 nM TFPI [15]: 10.2% | FXa assay % of FXa alone, 10 nM Ab, 10 nM TFPI [15]: 43.9% | FXa assay % of FXa alone, 20 nM Ab, 10 nM TFPI [15]: 66.9% | FXa assay OD, 2.5 nM Ab, 10 nM TFPI [15]: 0.0855 | FXa assay OD, 5 nM Ab, 10 nM TFPI [15]: 0.122 | FXa assay OD, 10 nM Ab, 10 nM TFPI [15]: 0.522 | FXa assay OD, 20 nM Ab, 10 nM TFPI [15]: 0.797 | FXa assay % of FXa alone, 2.5 nM Ab, 10 nM TFPI [16]: 6.9% | FXa assay % of FXa alone, 5 nM Ab, 10 nM TFPI [16]: 20% | FXa assay % of FXa alone, 10 nM Ab, 10 nM TFPI [16]: 45.4% | FXa assay % of FXa alone, 20 nM Ab, 10 nM TFPI [16]: 72.9% | FXa assay OD, 2.5 nM Ab, 10 nM TFPI [16]: 0.057 | FXa assay OD, 5 nM Ab, 10 nM TFPI [16]: 0.165 | FXa assay OD, 10 nM Ab, 10 nM TFPI [16]: 0.375 | FXa assay OD, 20 nM Ab, 10 nM TFPI [16]: 0.603
